Results published in paper PMC10925157.

Molecular target: Acinetobacter baumannii rhodanese-like domain protein (Ab-RLD) (Acinetobacter baumannii)
Assay: SEC

Acinetobacter baumannii rhodanese-like domain protein (Ab-RLD) (enzyme)
stoichiometry N: 2
